The experiment concerns the target TGF-βRII-Fc (muTGFbRII-mFc) (mouse (from the printed name muTGFbRII-mFc)) (UniProt Q62312). The experiment can be described thus: SPR; Biacore T100; TGF-βRII-Fc captured (~50 RU) by an anti-mouse Fc antibody amine-coupled to a CM5 chip; TGF-β2 injected at 0.04-90 nM (0.12-90 nM used for the fit); HBS-EP with 350 mM NaCl and 0.5 mg/mL BSA; steady-state affinity model. Background: SPR reads the build-up and loss of mass on a sensor chip optically.

TGF-βRII-Fc (muTGFbRII-mFc) (mouse (from the printed name muTGFbRII-mFc)), sequence (Q62312 24-166): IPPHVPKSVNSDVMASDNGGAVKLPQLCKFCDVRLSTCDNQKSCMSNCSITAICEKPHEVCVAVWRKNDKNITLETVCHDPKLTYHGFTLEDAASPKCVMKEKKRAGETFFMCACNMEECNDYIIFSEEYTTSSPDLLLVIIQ

What is called Kd is the concentration at which binding is half-saturated. A lower Kd goes with higher affinity. The substance “Transforming growth factor-β2 (TGF-β2) (ligand)” showed a Kd of 0.0116 µM.

For the origin of these results see paper PMC9714796.
